Patent publication US20250197513A1 (University of Texas, published 2025)

T1: cell surface human OSMR protein (as used in the ELISA for EC50) (human, UniProt Q99650 28-739, limits assumed)
T1 sequence (looked up): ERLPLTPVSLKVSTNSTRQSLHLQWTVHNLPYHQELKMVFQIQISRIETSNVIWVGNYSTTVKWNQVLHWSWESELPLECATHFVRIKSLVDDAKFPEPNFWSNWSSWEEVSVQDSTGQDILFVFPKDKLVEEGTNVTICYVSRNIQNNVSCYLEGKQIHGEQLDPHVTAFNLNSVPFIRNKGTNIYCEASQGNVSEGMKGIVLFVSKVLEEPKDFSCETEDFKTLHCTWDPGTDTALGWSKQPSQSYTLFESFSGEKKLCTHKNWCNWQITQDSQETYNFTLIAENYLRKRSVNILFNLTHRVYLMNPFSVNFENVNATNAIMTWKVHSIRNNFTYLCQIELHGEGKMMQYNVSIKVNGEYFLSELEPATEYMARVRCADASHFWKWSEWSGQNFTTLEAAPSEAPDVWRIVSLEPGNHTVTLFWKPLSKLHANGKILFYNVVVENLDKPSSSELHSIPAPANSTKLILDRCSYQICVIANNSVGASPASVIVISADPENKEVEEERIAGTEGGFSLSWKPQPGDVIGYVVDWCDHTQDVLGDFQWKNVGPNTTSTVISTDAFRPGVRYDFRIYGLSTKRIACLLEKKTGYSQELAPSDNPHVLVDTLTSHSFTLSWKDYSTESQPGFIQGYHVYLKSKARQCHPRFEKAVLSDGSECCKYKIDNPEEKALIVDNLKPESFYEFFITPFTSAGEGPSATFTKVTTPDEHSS

T2: recombinant OSMR protein (Sino Biologicals, 11226-H08H), extracellular domain of OSMR (UniProt Q99650 28-740)
T2 construct: extracellular domain; also called OSMR antigen
T2 sequence (looked up): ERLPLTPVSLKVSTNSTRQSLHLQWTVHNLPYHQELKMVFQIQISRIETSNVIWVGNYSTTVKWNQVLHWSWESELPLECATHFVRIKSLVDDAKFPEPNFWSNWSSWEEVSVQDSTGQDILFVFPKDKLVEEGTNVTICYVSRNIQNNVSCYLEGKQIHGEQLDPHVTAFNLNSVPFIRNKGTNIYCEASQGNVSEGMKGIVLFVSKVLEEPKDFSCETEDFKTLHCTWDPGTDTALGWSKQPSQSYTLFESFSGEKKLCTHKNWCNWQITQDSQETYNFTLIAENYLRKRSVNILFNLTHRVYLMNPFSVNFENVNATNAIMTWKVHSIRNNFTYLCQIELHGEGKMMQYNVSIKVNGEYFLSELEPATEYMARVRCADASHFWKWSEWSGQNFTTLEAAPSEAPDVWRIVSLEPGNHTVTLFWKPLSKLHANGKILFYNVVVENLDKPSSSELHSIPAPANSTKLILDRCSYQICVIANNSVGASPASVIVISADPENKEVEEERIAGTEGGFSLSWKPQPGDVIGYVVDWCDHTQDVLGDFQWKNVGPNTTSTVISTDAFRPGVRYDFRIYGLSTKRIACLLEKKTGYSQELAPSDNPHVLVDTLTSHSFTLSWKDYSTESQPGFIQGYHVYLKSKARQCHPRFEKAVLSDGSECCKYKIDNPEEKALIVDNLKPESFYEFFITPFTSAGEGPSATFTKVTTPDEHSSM


What was measured:
[1] = target: the molecule itself; test: dimerization assay (cross-linking, immunoprecipitation) after OSM stimulation
Description: Dimerization assay: Dimerization assay was performed as mentioned previously (Bublil et al., 2010; Turk and Chapkin, 2015) with some modifications. […] The […] were incubated with non-permeable cross-linking reagent, 3 mM bis (sulphosuccinimidyl) suberate [BS3 (Pierce)], cross-linking reagent on ice for 30 min and subsequently quenched with 250 mM Glycine. The cells were washed with ice cold PBS and cells were lysed using RIPA buffer as mentioned earlier.

[2] = target: T1, cell surface human OSMR protein (as …); test: ELISA
[3] = target: T2, recombinant OSMR protein (Sino …); test: screening of full-length IgG1 clones on recombinant OSMR extracellular domain

| binding result [2] | binding result [3] | Binder | binding result [1] |
| --- | --- | --- | --- |
|  |  | OSMR on human ovarian cancer cells (HEYA8, OVCAR4, A2780) (receptor, UniProt Q99650 28-979, looked up, whole, on cells; also called Oncostatin M receptor; OMSR receptors) ERLPLTPVSLKVSTNSTRQSLHLQWTVHNLPYHQELKMVFQIQISRIETSNVIWVGNYSTTVKWNQVLHWSWESELPLECATHFVRIKSLVDDAKFPEPNFWSNWSSWEEVSVQDSTGQDILFVFPKDKLVEEGTNVTICYVSRNIQNNVSCYLEGKQIHGEQLDPHVTAFNLNSVPFIRNKGTNIYCEASQGNVSEGMKGIVLFVSKVLEEPKDFSCETEDFKTLHCTWDPGTDTALGWSKQPSQSYTLFESFSGEKKLCTHKNWCNWQITQDSQETYNFTLIAENYLRKRSVNILFNLTHRVYLMNPFSVNFENVNATNAIMTWKVHSIRNNFTYLCQIELHGEGKMMQYNVSIKVNGEYFLSELEPATEYMARVRCADASHFWKWSEWSGQNFTTLEAAPSEAPDVWRIVSLEPGNHTVTLFWKPLSKLHANGKILFYNVVVENLDKPSSSELHSIPAPANSTKLILDRCSYQICVIANNSVGASPASVIVISADPENKEVEEERIAGTEGGFSLSWKPQPGDVIGYVVDWCDHTQDVLGDFQWKNVGPNTTSTVISTDAFRPGVRYDFRIYGLSTKRIACLLEKKTGYSQELAPSDNPHVLVDTLTSHSFTLSWKDYSTESQPGFIQGYHVYLKSKARQCHPRFEKAVLSDGSECCKYKIDNPEEKALIVDNLKPESFYEFFITPFTSAGEGPSATFTKVTTPDEHSSMLIHILLPMVFCVLLIMVMCYLKSQWIKETCYPDIPDPYKSSILSLIKFKENPHLIIMNVSDCIPDAIEVVSKPEGTKIQFLGTRKSLTETELTKPNYLYLLPTEKNHSGPGPCICFENLTYNQAASDSGSCGHVPVSPKAPSMLGLMTSPENVLKALEKNYMNSLGEIPAGETSLNYVSQLASPMFGDKDSLPTNPVEAPHCSEYKMQMAVSLRLALPPPTENSSLSSITLLDPGEHYC | binds |
| no binding | binds | B18 monoclonal antibody (antibody, V domains shown, also called B18 mAb; B18 antibody clones) VH: not shown VL: DVVMTQSPLSLPVTPGEPASISCRSSQSLLHSNGYNYLDWYMQKPGQSPQVLIYLGSNRASGVPDRFSGSGSGTDFTLKISRVEAEDVGVYYCMQALQTPHTFGQGTTVDIK |  |
